Test results from the supplement of paper PMC11246515.
± gives the standard deviation of the averaged measurements.

Experiment: total protein half-life in vivo (active degradation + dilution); higher = more stable protein
[1] = E. coli NCM3722 delta-clpP delta-lon delta-hslV, growth: N-lim chemostat, doubling time 6 h
[2] = E. coli NCM3722 delta-clpP, growth: N-lim chemostat, doubling time 6 h
[3] = E. coli NCM3722 delta-smpB, growth: N-lim chemostat, doubling time 6 h
[4] = wild type E. coli NCM3722, growth: C-lim chemostat, doubling time 3 h
[5] = wild type E. coli NCM3722, growth: C-lim chemostat, doubling time 6 h
[6] = wild type E. coli NCM3722, growth: C-lim chemostat, doubling time 12 h
[7] = wild type E. coli NCM3722, growth: N-lim chemostat, doubling time 6 h
[8] = wild type E. coli NCM3722, growth: P-lim chemostat, doubling time 6 h
[9] = wild type E. coli NCM3722, growth: P-lim chemostat, doubling time 12 h
[10] = E. coli NCM3722 delta-hslV, growth: N-lim chemostat, doubling time 6 h
[11] = E. coli NCM3722 delta-lon, growth: N-lim chemostat, doubling time 6 h
[12] = wild type E. coli NCM3722, growth: N-lim chemostat, doubling time 12 h

| Sequence | total protein half-life in vivo [1] | total protein half-life in vivo [2] | total protein half-life in vivo [3] | total protein half-life in vivo [4] | total protein half-life in vivo [5] | total protein half-life in vivo [6] | total protein half-life in vivo [7] | total protein half-life in vivo [8] | total protein half-life in vivo [9] | total protein half-life in vivo [10] | total protein half-life in vivo [11] | total protein half-life in vivo [12] |
| --- | --- | --- | --- | --- | --- | --- | --- | --- | --- | --- | --- | --- |
| MESIQPWIEKFIKQAQQQRSQSTKDYPTSYRNLRVKLSFGYGNFTSIPWFAFLGEGQEASNGIYPVILYYKDFDELVLAYGISDTNEPHAQWQFSSDIPKTIAEYFQATSGVYPKKYGQSYYACSQKVSQGIDYTRFASMLDNIINDYKLIFNSGKSVIPPMSKTESYCLEDALNDLFIPETTIETILKRLTIKKNIILQGPPGVGKTFVARRLAYLLTGEKAPQRVNMVQFHQSYSYEDFIQGYRPNGVGFRRKDGIFYNFCQQAKEQPEKKYIFIIDEINRANLSKVFGEVMMLMEHDKRGENWSVPLTYSENDEERFYVPENVYIIGLMNTADRSLAVVDYALRRRFSFIDIEPGFDTPQFRNFLLNKKAEPSFVESLCQKMNELNQEISKEATILGKGFRIGHSYFCCGLEDGTSPDTQWLNEIVMTDIAPLLEEYFFDDPYKQQKWTNKLLGDS | 5.77 ± 0.24 h | 3.81 h | 4 ± 0.19 h | 3.13 ± 0.25 h | 6.02 ± 2.1 h | 8.15 ± 0.33 h | 4.41 ± 0.59 h | 5.12 ± 0.74 h | 6.46 ± 0.81 h |  |  |  |
| MESLNQFVNSLAPKLSHWRRDFHHYAESGWVEFRTATLVAEELHQLGYSLALGREVVNESSRMGLPDEFTLQREFERARQQGALAQWIAAFEGGFTGIVATLDTGRPGPVMAFRVDMDALDLSEEQDVSHRPYRDGFASCNAGMMHACGHDGHTAIGLGLAHTLKQFESGLHGVIKLIFQPAEEGTRGARAMVDAGVVDDVDYFTAVHIGTGVPAGTVVCGSDNFMATTKFDAHFTGTAAHAGAKPEDGHNALLAAAQATLALHAIAPHSEGASRVNVGVMQAGSGRNVVPASALLKVETRGASDVINQYVFDRAQQAIQGAATMYGVGVETRLMGAATASSPSPQWVAWLQSQAAQVAGVNQAIERVEAPAGSEDATLMMARVQQHQGQASYVVFGTQLAAGHHNEKFDFDEQVLAIAVETLARTALNFPWTRGI | 6.21 ± 1.1 h | 2.65 ± 0.05 h | 2.86 ± 0.093 h | 1.71 ± 0.65 h | 5.22 h | 5.67 ± 0.081 h | 2.9 ± 0.053 h | 1.87 h | 6.79 h | 3.12 ± 0.28 h | 3.18 ± 0.22 h | 4.45 ± 0.16 h |
| MESNNGEAKIQKVKNWSPVWIFPIVTALIGAWVLFYHYSHQGPEVTLITANAEGIEGGKTTIKSRSVDVGVVESATLADDLTHVEIKARLNSGMEKLLHKDTVFWVVKPQIGREGISGLGTLLSGVYIELQPGAKGSKMDKYDLLDSPPLAPPDAKGIRVILDSKKAGQLSPGDPVLFRGYRVGSVETSTFDTQKRNISYQLFINAPYDRLVTNNVRFWKDSGIAVDLTSAGMRVEMGSLTTLLSGGVSFDVPEGLDLGQPVAPKTAFVLYDDQKSIQDSLYTDHIDYLMFFKDSVRGLQPGAPVEFRGIRLGTVSKVPFFAPNMRQTFNDDYRIPVLIRIEPERLKMQLGENADVVEHLGELLKRGLRGSLKTGNLVTGALYVDLDFYPNTPAITGIREFNGYQIIPTVSGGLAQIQQRLMEALDKINKLPLNPMIEQATSTLSESQRTMKNLQTTLDSMNKILASQSMQQLPTDMQSTLRELNRSMQGFQPGSAAYNKMVADMQRLDQVLRELQPVLKTLNEKSNALVFEAKDKKDPEPKRAKQ | 6.4 ± 0.49 h | 7 ± 0.91 h | 5.75 ± 0.35 h | 3.341 ± 0.027 h | 7.13 ± 0.87 h | 12.8 ± 1.1 h | 5.99 ± 0.28 h | 6.06 ± 0.058 h |  |  | 6.43 ± 0.21 h | 12.9 ± 0.71 h |
| METFNSLFMVSPLLLGVLFFVAMLAGFIDSIAGGGGLLTIPALMAAGMSPANALATNKLQACGGSISATIYFIRRKVVSLSDQKLNIAMTFVGSMSGALLVQYVQADVLRQILPILVICIGLYFLLMPKLGEEDRQRRMYGLPFALIAGGCVGFYDGFFGPAAGSFYALAFVTLCGFNLAKATAHAKLLNATSNIGGLLLFILGGKVIWATGFVMLVGQFLGARMGSRLVLSKGQKLIRPMIVIVSAVMSAKLLYDSHGQEILHWLGMN [P0AD30] | 6.4 h |  | 6.13 h |  | 5.18 ± 0.11 h |  | 4.37 h |  | 10 ± 3.5 h |  | 6.29 ± 0.21 h |  |
| METKDLIVIGGGINGAGIAADAAGRGLSVLMLEAQDLACATSSASSKLIHGGLRYLEHYEFRLVSEALAEREVLLKMAPHIAFPMRFRLPHRPHLRPAWMIRIGLFMYDHLGKRTSLPGSTGLRFGANSVLKPEIKRGFEYSDCWVDDARLVLANAQMVVRKGGEVLTRTRATSARRENGLWIVEAEDIDTGKKYSWQARGLVNATGPWVKQFFDDGMHLPSPYGIRLIKGSHIVVPRVHTQKQAYILQNEDKRIVFVIPWMDEFSIIGTTDVEYKGDPKAVKIEESEINYLLNVYNTHFKKQLSRDDIVWTYSGVRPLCDDESDSPQAITRDYTLDIHDENGKAPLLSVFGGKLTTYRKLAEHALEKLTPYYQGIGPAWTKESVLPGGAIEGDRDDYAARLRRRYPFLTESLARHYARTYGSNSELLLGNAGTVSDLGEDFGHEFYEAELKYLVDHEWVRRADDALWRRTKQGMWLNADQQSRVSQWLVEYTQQRLSLAS | 6.86 ± 0.86 h | 5.96 ± 0.25 h | 2.4 ± 0.17 h | 2.1 ± 0.094 h | 3.51 ± 0.53 h | 4.92 ± 0.65 h | 2.83 ± 0.088 h | 2.92 ± 0.053 h | 5.02 ± 0.13 h | 2.71 ± 0.75 h | 2.76 ± 0.13 h | 4.179 ± 0.033 h |
| METKNLTIGERIRYRRKNLKHTQRSLAKALKISHVSVSQWERGDSEPTGKNLFALSKVLQCSPTWILFGDEDKQPTPPVEKPVALSPKELELLELFNALPESEQDTQLAEMRARVKNFNKLFEELLKARQRTNKR | 6.79 ± 1 h | 5.32 ± 0.38 h | 5.86 ± 0.56 h | 3.21 ± 0.043 h | 5.25 ± 0.77 h | 6.96 ± 1.7 h | 4.971 ± 0.028 h | 5.33 ± 1 h | 10.7 ± 0.66 h | 5.9 ± 0.15 h | 6.27 ± 0.067 h | 10.2 ± 2.7 h |
| METNIVEVENFVQQSEERRGSAFTQEVKRYLERYPNTQYVDVLLTDLNGCFRGKRIPVSSLKKLEKGCYFPASVFAMDILGNVVEEAGLGQEMGEPDRTCVPVLGSLTPSAADPEFIGQMLLTMVDEDGAPFDVEPRNVLNRLWQQLRQRGLFPVVAVELEFYLLDRQRDAEGYLQPPCAPGTDDRNTQSQVYSVDNLNHFADVLNDIDELAQLQLIPADGAVAEASPGQFEINLYHTDNVLEACDDALALKRLVRLMAEKHKMHATFMAKPYEEHAGSGMHIHISMQNNRGENVLSDAEGEDSPLLKKMLAGMIDLMPSSMALLAPNVNSYRRFQPGMYVPTQASWGHNNRTVALRIPCGDRHNHRVEYRVAGADANPYLVMAAIFAGILHGLDNELPLQEEVEGNGLEQEGLPFPIRQSDALGEFIENDHLRRYLGERFCHVYHACKNDELLQFERLITETEIEWMLKNA | 3.73 ± 1.2 h | 2.89 ± 0.19 h | 0.507 h | 0.748 h | 1.47 h | 0.976 h |  |  |  | 0.535 ± 0.066 h |  |  |
